Here are results for 1 molecule from patent US20230257479A1 (Genmab, published 2023).

Assay [1] concerns the target T1, human 5T4ECDHis (mature protein of SEQ ID NO: 99) (human, UniProt Q13641 32-355).
T1 construct: ECD of human 5T4 (aa 1-355 of Uniprot Q13641) with C-terminal His tag; residues 1-31 are the signal peptide; also called ECD of human 5T4 with a C-terminal His tag
T1 sequence: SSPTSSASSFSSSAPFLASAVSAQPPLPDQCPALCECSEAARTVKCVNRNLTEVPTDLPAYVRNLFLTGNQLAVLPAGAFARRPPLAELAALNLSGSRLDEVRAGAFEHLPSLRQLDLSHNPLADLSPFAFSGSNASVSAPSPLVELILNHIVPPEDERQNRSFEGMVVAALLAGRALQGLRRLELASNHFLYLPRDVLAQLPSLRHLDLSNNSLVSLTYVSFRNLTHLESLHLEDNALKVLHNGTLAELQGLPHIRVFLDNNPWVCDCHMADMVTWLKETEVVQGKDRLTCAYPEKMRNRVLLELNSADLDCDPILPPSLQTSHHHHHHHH
The assay is described as follows: BLI cross-block; competitor (immobilised): IgG1-5T4-H8-FEAR.

The target in assay [2] is T1, human 5T4ECDHis (mature protein of SEQ …). The assay is described as follows: BLI cross-block; competitor (immobilised): IgG1-5T4-059-FEAR.
For assay [3] the target is unchanged. The assay is described as follows: BLI cross-block; competitor (immobilised): IgG1-5T4-076-FEAR.
For assay [4] the target is unchanged. The assay is described as follows: BLI cross-block; competitor (immobilised): IgG1-5T4-085-FEAR.
Assay [5] shares this target. The assay is described as follows: BLI cross-block; competitor (immobilised): IgG1-5T4-106-FEAR.
Assay [6] shares this target. The assay is described as follows: BLI cross-block; competitor (immobilised): IgG1-5T4-127-FEAR.
The target is the same in assay [7]. The assay is described as follows: BLI cross-block; competitor (immobilised): IgG1-5T4-207-FEAR.
For assay [8] the target is unchanged. The assay is described as follows: BLI cross-block; competitor (immobilised): IgG1-5T4-226-FEAR.
Assay [9] has the same target. The assay is described as follows: BLI cross-block; competitor (immobilised): IgG1-5T4-A1-F405L.
Assay [10] has the same target. The assay is described as follows: BLI cross-block; competitor (immobilised): IgG1-5T4-A3-F405L.
In assay [11] the target is T2, full length human 5T4 (SEQ ID NO: 1) on cells (human, UniProt Q13641 32-420).
T2 construct: Uniprot Q13641; residues 1-31 are the signal peptide; Used both for transfected HEK-293 cells and for 5T4-expressing human tumor cell lines
T2 sequence: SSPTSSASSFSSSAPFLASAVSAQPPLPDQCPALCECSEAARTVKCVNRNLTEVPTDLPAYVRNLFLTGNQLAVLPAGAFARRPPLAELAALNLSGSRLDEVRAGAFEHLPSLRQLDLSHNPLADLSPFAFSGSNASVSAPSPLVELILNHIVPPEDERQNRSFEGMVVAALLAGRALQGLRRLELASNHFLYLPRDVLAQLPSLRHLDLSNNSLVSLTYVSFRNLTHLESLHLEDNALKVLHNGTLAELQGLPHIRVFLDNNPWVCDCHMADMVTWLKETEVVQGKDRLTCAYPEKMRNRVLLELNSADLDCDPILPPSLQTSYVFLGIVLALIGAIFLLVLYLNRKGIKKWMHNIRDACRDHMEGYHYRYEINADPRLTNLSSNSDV
The assay is described as follows: flow cytometry, MDA-MB-231 cells, PE secondary [III)F]. (A flow cytometer gives signals particle by particle.)

Assay [12] concerns the target T2, full length human 5T4 (SEQ ID NO: 1) on …. The assay is described as follows: flow cytometry, HEK-293 cells transfected with human 5T4, PE secondary [II)G].
Assay [13] has as its target T3, full length cynomolgus monkey 5T4 on transfected HEK-293 cells (cynomolgus monkey, UniProt Q4R8Y9 35-420).
T3 construct: Uniprot Q4R8Y9; residues 1-34 are the signal peptide; also called cynomolgus 5T4
T3 sequence: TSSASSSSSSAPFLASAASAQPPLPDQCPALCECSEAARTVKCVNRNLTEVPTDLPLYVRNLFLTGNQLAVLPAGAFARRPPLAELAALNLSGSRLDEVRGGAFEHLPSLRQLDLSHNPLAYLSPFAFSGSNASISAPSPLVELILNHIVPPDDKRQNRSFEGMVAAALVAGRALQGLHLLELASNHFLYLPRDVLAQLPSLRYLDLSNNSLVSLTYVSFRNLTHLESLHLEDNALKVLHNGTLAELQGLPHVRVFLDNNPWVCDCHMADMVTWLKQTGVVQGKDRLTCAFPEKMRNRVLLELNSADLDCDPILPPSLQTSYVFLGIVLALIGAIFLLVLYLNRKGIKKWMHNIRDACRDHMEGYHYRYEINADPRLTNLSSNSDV
The assay is described as follows: flow cytometry, HEK-293 cells transfected with cynomolgus monkey 5T4, PE secondary [II)G].

Assay [14] deals with T1, human 5T4ECDHis (mature protein of SEQ …). The assay is described as follows: BLI, antibody on anti-human IgG Fc Capture biosensor, antigen in solution; 50 s dissociation window. Background: In BLI a coated tip is dipped into the sample, and binding shifts an interference pattern.
Assay [15] deals with T4, recombinant cynomolgus monkey 5T4 protein (Cusabio; cat. no. CSB-MP024093MOV) (cynomolgus monkey, UniProt Q4R8Y9 35-355).
T4 construct: extracellular domain; Bought protein; also called cynomolgus 5T4; cynomolgus monkey 5T4 extracellular domain
T4 sequence (looked up): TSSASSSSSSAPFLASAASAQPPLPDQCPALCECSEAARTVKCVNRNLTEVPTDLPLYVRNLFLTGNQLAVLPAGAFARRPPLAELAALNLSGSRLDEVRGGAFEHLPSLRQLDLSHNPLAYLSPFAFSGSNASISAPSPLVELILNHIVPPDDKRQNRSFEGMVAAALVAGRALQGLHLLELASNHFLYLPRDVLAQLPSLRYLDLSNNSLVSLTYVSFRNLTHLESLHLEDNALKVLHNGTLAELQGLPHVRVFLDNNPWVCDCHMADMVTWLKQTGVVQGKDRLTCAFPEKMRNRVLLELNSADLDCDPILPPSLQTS
Described as above.

B1: IgG1-5T4-127-FEAR (antibody, V domains shown)
VH: EVQLLESRGGLVQPGGSLRLSCAASGFTFSSYAMSWVRQAPGKGLEWVSTISGSGGSTYYADSVKGRFTISRDNSKKTLYLQMNSLRAEDTAVYYCAKDWGSGSYPAEYFQHWGQGTLVTVSS
VL: EIVLTQSPATLSLSPGERATLSCRASQSVSSYLAWYQQKPGQAPRLLIYDASNRATGIPARFSGSGSGTDFTLTISSLEPEDFAVYYCQQRSNWLMYTFGQGTKLEIK
notes: Monospecific, bivalent human IgG1 kappa with L234F, L235E, D265A, K409R (FEAR)
Turning to B1, the corrected association response in [1] was -0.01 nm; in [2] it was -0.1 nm; in assay [3] it was -0.02 nm; in assay [4], 0 nm; in [5] it was -0.02 nm; in assay [6], -0.01 nm. Also, the corrected association response amounted to 1.29 nm in assay [7], 1.51 nm in assay [8], 0.87 nm in [9] and 0.01 nm in assay [10]. Also, the figures for the “EC50 (read off the curve)” value in [11], in [12] and in assay [13] were approximately 0.03 µg/mL, approximately 0.03 µg/mL and approximately 0.02 µg/mL, respectively. The Kd (in general, the constant that tells how readily two partners part at equilibrium) in [14] was determined as 27 nM; in assay [15], 41 nM. The values for the koff in assay [14] and in [15] were 0.016 s⁻¹ and 0.015 s⁻¹, respectively. In addition, the kon (usually a measure of how fast the partners come together) in assay [14] was 580000 M⁻¹ s⁻¹; in assay [15], 370000 M⁻¹ s⁻¹.
